Assay [1] has as its target cation-independent mannose-6-phosphate receptor (CI-M6PR) on cells overexpressing CI-M6PR. Briefly: cellular uptake assay on cells overexpressing CI-M6PR, intracellular Naglu activity read-out.
Target sequence in this assay (P11717 41-2491): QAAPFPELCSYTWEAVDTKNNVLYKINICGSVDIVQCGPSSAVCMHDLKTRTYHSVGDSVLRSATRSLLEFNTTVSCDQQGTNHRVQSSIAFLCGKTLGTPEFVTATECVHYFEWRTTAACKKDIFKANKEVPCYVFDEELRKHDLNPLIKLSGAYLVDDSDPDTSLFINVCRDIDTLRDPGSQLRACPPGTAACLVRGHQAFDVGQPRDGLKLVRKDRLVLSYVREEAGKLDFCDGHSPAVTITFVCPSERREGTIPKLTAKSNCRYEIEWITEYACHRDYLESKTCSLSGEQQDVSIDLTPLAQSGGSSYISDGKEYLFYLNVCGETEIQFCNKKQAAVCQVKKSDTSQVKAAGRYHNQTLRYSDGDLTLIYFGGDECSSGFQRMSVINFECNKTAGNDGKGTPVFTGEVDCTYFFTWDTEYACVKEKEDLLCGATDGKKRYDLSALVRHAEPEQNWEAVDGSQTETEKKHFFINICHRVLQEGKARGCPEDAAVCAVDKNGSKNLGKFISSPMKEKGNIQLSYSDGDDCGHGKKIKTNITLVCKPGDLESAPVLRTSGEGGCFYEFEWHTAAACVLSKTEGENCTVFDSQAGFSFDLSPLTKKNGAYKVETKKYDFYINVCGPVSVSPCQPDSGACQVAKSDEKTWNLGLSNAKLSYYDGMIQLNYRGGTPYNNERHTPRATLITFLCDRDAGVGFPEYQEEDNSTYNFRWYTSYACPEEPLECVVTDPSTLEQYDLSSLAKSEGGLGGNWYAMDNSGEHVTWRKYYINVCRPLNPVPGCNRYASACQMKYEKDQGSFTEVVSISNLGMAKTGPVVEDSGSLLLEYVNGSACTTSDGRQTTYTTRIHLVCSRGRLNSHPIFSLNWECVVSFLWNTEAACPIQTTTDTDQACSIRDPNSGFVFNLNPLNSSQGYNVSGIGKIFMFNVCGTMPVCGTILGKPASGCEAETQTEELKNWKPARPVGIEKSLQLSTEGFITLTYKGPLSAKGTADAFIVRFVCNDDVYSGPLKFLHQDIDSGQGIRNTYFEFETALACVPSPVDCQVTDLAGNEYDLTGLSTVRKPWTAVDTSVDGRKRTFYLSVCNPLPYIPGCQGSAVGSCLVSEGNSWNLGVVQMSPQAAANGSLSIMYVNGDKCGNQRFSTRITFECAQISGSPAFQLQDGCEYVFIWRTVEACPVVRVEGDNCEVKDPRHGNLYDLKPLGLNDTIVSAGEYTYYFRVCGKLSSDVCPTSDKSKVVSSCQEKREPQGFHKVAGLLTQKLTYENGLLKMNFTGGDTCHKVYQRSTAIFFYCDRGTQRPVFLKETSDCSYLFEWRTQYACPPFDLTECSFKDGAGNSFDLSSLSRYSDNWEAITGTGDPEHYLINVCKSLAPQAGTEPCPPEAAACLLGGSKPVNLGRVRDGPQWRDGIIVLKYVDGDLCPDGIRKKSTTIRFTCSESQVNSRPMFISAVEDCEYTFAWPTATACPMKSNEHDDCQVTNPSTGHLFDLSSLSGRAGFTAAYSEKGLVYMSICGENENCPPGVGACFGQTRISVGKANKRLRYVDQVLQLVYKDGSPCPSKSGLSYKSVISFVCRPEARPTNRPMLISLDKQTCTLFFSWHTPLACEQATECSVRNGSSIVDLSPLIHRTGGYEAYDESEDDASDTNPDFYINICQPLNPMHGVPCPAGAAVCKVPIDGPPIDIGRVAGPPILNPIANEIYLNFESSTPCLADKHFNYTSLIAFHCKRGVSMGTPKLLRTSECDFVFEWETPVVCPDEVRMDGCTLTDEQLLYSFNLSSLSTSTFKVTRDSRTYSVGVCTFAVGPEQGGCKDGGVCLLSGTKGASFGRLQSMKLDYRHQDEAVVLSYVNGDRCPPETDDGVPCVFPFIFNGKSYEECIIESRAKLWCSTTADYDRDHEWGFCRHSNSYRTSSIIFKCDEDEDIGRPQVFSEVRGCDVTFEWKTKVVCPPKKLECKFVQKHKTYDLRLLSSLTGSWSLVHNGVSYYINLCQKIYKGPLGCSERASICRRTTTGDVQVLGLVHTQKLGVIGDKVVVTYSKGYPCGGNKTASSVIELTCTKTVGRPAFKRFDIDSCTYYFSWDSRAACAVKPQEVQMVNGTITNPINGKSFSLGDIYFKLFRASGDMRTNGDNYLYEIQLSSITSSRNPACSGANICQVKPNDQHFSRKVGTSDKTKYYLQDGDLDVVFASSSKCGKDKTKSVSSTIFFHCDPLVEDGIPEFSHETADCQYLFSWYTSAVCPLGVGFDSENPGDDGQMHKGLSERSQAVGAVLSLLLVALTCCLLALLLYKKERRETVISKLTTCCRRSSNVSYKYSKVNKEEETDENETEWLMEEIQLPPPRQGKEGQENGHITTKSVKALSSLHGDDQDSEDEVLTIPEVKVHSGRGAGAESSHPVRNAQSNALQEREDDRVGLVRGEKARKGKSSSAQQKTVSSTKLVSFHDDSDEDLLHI
The target is the same in assay [2]. Briefly: cellular uptake assay on cells overexpressing CI-M6PR, intracellular I2S enzyme activity read-out.

The term Kd denotes the concentration at which binding is half-saturated. As for “Naglu-LIF fusion protein (produced in HT-1080 cells) (enzyme)”, the Kd in assay [1] stood at 178 nM.
Same read-out and setting: then “Naglu-LIF fusion protein produced in HT-1080 cells overexpressing GNPT (enzyme)”, with 15 nM.
As to “recombinant iduronate 2-sulfatase (I2S) produced in HT-1080 cells co-overexpressing GNPT (from UniProt P22304 26-550) (enzyme)”, the Kd in assay [2] was 1.65 nM.
On the same count and under the same terms, in the case of “recombinant iduronate 2-sulfatase (I2S) produced in HT-1080 cells overexpressing I2S alone (from UniProt P22304 26-550) (enzyme)” it was 27.9 nM.

These data come from patent publication US20170232076A1.
